Results from paper PMC5885637 (Journal of molecular biology, 2014).

Target: wild-type mouse PrP (residues 23-231) displayed on the yeast surface (Mus musculus, UniProt P04925)
Assay: flow cytometry on cells

wild-type mouse PrP (residues 23-231) displayed on the yeast surface, sequence (P04925 23-231): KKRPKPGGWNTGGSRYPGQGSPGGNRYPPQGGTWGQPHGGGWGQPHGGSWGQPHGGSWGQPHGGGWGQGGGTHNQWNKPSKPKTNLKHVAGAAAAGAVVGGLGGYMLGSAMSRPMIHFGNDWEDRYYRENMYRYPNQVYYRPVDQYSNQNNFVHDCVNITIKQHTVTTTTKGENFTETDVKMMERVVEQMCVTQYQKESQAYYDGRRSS

B1: ICSM18-scFv (scFv, V domains shown)
VH: EVQLQQSGPELVKPGSSVKISCKASRNTFTDYNLDWVKQSHGKTLEWIGNVYPNNGVTGYNQKFRGKATLTVDKSSSTAYMELHSLTSEDSAVYYCALYYYDVSYWGQGTLVTVSS
VL: QIVLTQSPAIMSASPGEKVTMTCSASSSVSYMHWYQQKSGTSPKRWIYDTSKLASGVPARFSGSGSGTSYSLTISSMEAEDAATYFCHQWRSNPYTFGGGTKLEIK
Kd: 153 nM
